{"source": "patent US12187779B2", "about": "(dated 2025)", "biological_target": "T1, HPV 16 E6 peptide on HLA-A*02:01 (human)", "T1 peptide": "TIHDIILECV", "test": "multimer staining"}
{"binder": "E6 TCR (TCR, V domains shown) Valpha: GQQLNQSPQSMFIQEGEDVSMNCTSSSIFNTWLWYKQDPGEGPVLLIALYKAGELTSNGRLTAQFGITRKDSFLNISASIPSDVGIYFCAGHPSSNSGYALNFGKGTSLLVTP Vbeta: GAGVSQSPRYKVTKRGQDVALRCDPISGHVSLYWYRQALGQGPEFLTYFNYEAQQDKSGLPNDRFSAERPEGSISTLTIQRTEQRDSAMYRCASSSQTGARTDTQYFGPGTRLTVL", "values": [{"measurement": "binding result", "result": "recognises"}]}
